Test results as given in publication PMC10040874 (2023).

Key:
[1] = target: Drosophila melanogaster CNNM CBS-pair domain, GST-tagged (D. melanogaster, UniProt A0A0B7P9G0 362-515); assay: ITC
[2] = target: T1, CBS-pair domain of a C. elegans CNNM protein (the one of two expressed that bound with 13 μM affinity) (C. elegans); assay: ITC; CNNM3
T1 chain: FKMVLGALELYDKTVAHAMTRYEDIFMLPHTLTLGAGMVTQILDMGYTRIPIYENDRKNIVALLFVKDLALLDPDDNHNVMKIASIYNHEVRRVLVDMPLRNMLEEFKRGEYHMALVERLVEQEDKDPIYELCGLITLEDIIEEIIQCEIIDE

[3] = target: T2, CBS-pair domain of a C. elegans CNNM protein (the one of two expressed that bound with 1 μM affinity) (C. elegans); assay: ITC; CNNM1
T2 chain: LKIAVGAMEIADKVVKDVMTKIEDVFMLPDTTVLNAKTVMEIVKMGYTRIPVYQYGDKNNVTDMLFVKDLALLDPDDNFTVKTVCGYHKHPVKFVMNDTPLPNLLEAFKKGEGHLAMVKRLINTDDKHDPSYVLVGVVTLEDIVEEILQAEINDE

[4] = target: T2, CBS-pair domain of a C. elegans CNNM …; assay: ITC; CNNM1
[5] = target: T3, Toxoplasma gondii CNNM CBS-pair domain (T. gondii); assay: ITC
T3 chain: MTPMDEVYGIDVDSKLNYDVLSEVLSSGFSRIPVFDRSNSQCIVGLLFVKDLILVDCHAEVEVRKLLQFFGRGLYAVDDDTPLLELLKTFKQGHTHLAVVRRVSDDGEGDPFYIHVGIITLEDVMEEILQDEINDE

[6] = target: T3, Toxoplasma gondii CNNM CBS-pair domain; assay: ITC
[7] = target: D. rerio CNNM CBS-pair domain (D. rerio); assay: ITC
[8] = target: D. rerio CNNM CBS-pair domain (D. rerio); assay: ITC; remark: listed apart in the source
[9] = target: M. brevicollis CNNM CBS-pair domain (M. brevicollis); assay: ITC
[10] = target: M. brevicollis CNNM CBS-pair domain (M. brevicollis); assay: ITC; remark: listed apart in the source
[11] = target: T4, human CNNM3 CBS-pair domain (human, UniProt Q8NE01 309-452); assay: ITC
[12] = target: T4, human CNNM3 CBS-pair domain; assay: ITC; remark: listed apart in the source

Sequence of D. rerio CNNM CBS-pair domain (D. rerio) (chain, as listed by the source): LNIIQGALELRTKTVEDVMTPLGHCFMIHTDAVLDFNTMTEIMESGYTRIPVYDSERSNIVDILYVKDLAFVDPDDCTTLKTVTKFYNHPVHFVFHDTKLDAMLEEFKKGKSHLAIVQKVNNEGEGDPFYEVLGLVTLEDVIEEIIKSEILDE
T4 sequence (Q8NE01 309-452): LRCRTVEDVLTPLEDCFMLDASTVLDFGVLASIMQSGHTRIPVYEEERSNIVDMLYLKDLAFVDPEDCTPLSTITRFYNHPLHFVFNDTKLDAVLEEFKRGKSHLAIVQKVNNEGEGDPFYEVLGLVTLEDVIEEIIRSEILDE
Sequence of Drosophila melanogaster CNNM CBS-pair domain, GST-tagged (A0A0B7P9G0 362-515): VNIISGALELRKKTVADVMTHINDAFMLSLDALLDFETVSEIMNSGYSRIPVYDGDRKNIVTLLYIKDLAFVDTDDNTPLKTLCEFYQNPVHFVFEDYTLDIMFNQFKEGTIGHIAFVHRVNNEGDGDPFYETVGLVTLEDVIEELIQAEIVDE

B1: Drosophila melanogaster PRL (wild-type) (enzyme)
chain: MSITMRQKDLRPAPALIEYKGMKFLITDRPSDITINHYIMELKKNNVNTVVRVCEPSYNTDELETQGITVKDLAFEDGTFPPQQVVDEWFEVLKDKYQQNPEACVAVHCVAGLGRAPVLVALALIELGLKYEAAVEMIRDKRRGAINAKQLSFLEKYKPKARLKHKNGHKNSCSVQ
- Ka [1]: 2.84e+06 M⁻¹

B2: Caenorhabditis elegans PRL (enzyme)
chain: MSAAVQKRASTNTVAATTYFKPAPSEIAWGKMRFLITDRPNNSSIQSYIEELEKHGARAVVRVCEPTYDTLALKEAGIDVLDWQFSDGSPPPPEVIKSWFQLCMTSFKEHPDKSIAVHCVAGLGRAPVLVAIALIEAGMKYEDAVEMIRTQRRGALNQKQLKFLETYKANGELRRLRGNVDGKQKSCCIQ
modifications: Assigning the 13 uM binder to CNNM3 is inferred from listing order (Figure 4 not in text)
- Kd [2]: 970 nM

B3: Caenorhabditis elegans PRL (enzyme)
chain: MSAAVQKRASTNTVAATTYFKPAPSEIAWGKMRFLITDRPNNSSIQSYIEELEKHGARAVVRVCEPTYDTLALKEAGIDVLDWQFSDGSPPPPEVIKSWFQLCMTSFKEHPDKSIAVHCVAGLGRAPVLVAIALIEAGMKYEDAVEMIRTQRRGALNQKQLKFLETYKANGELRRLRGNVDGKQKSCCIQ
modifications: Table S2: only CNNM1 (376-530) and CNNM3 (375-527) gave protein; assigning the 1 uM binder to CNNM1 is inferred from listing order (Figure 4 not in text)
- Ka [3]: 76100 M⁻¹
- Kd [4]: 13 µM

B4: Toxoplasma gondii PRL (enzyme)
chain: MNEASSCLSPEEPRSCDNREEGTTRELRSGSHMGKGKLGHSPTTSHSELTREGSSVDCGRRGGNEEKTEEKRSEKAGAERECERKTQRPRFDGDGSSLSPRSNASRGSACSTRSCESHEKVGRTLSGDSTGRDGVCSVSSARQPSLRRKSAAEEVGREVKVDGKALDSQIELVRTKNRGKSEVTRLGRGAGSACAVSVSPLGTARHVPSGRQPSERRQSAKPLTKLSSSSSSHNKTTMVPTVMNTPTRIEAGRQKFLIFDAPSQENLPAYIEEMRAYEVTDLVRTCERTYDDKTVLASGIRPHELIFPDGEAPPDDVIDEWLTLCNAVSQQRGAIAIHCVAGLGRAPVLVAIALIEKGMDPMDAIMFIRERRKGAINRRQLQFLKGYKRRSNYKKCCGGR
- Ka [5]: 134000 M⁻¹
- Kd [6]: 7.4 µM

B5: D. rerio PRL (enzyme)
chain: MARMNRPAPVEVCYKNMRFLITHNPTNSTLSSFIEDLKKYGVTTVVRVCEITYDKTPLEKNGITVVDWPFDDGAPPPSKVVEDWLSLLKRRFIEEPGCCVAVHCVAGLGRAPVLVAVALIESGMKYEDAIQFIRQKRRGAINSKQLTYLEKYRPKQRLRYKHPHIFKNK
modifications: Table S2 says CNNM4 only; the choice of cnnm4a over cnnm4b is assumed
- Ka [7]: 5.84e+07 M⁻¹
- Kd [8]: 17 nM

B6: M. brevicollis PRL (enzyme)
chain: MARNHISKISHKNMRFLITDRPSDATVEDYVRVLQQENVVALCRVCEPSYDVSKLKDNGIEVHDWAFQDGAPPPDEVIDNWLRLCRETFAQHPNGFVAVHCVAGLGRAPVLVALSLIEAGMSSEDAVLFIREKRHGAINRRQLQFLQDYKRRGKAKG
- Ka [9]: 3.24e+06 M⁻¹
- Kd [10]: 300 nM

B7: human PRL2 (enzyme)
chain: MNRPAPVEISYENMRFLITHNPTNATLNKFTEELKKYGVTTLVRVCDATYDKAPVEKEGIHVLDWPFDDGAPPPNQIVDDWLNLLKTKFREEPGCCVAVHCVAGLGRAPVLVALALIECGMKYEDAVQFIRQKRRGAFNSKQLLYLEKYRPKMRLRFRDTNGH
- Ka [11]: 3.63e+07 M⁻¹
- Kd [12]: 28 nM
